We go through seven molecules from patent publication US20110098217A1 (INDIANA UNIVERSITY RESEARCH AND TECHNOLOGY, published 2011).

Like-named read-outs stand apart in the source and are kept apart here. Bridge positions count the residues as written; N and C are the ends. Square brackets hold non-standard residues; d marks the D form. Side chains are listed from the residue outwards. Ends that are not written are not given here. Glu = Glu spacer between Lys side chain and the C16 fatty acid (EC16FA); Abu(4-SO3H) = N[C@@H](CCS(=O)(=O)O)C(=O)O; PhLac = O=C(O)[C@@H](O)Cc1ccccc1

As usually defined, the IC50 is the concentration at which inhibition is half-maximal. Low readings indicate higher potency, high ones lower potency.

Experiment [1] addresses T1, human glucagon receptor (human, UniProt P47871 26-477). The experiment is described as follows: cell-based or functional assay.
For experiment [2], the target named is T1, human glucagon receptor. The experiment is described as follows: SPA competition vs 125I-glucagon, receptor membranes.
Experiment [3] deals with T1, human glucagon receptor. The experiment is described as follows: cell-based or functional assay. This is another data set of the same source.
In experiment [4] the target is T2, human GLP-1 receptor (human, UniProt P43220 24-463). The experiment in a line: cell-based or functional assay.
The target of experiment [5] is T1, human glucagon receptor. The experiment is described as follows: cell-based or functional assay. This is another data set of the same source.
The target in experiment [6] is T2, human GLP-1 receptor. The experiment in a line: cell-based or functional assay. This is another data set of the same source.

T1 sequence (P47871 26-477): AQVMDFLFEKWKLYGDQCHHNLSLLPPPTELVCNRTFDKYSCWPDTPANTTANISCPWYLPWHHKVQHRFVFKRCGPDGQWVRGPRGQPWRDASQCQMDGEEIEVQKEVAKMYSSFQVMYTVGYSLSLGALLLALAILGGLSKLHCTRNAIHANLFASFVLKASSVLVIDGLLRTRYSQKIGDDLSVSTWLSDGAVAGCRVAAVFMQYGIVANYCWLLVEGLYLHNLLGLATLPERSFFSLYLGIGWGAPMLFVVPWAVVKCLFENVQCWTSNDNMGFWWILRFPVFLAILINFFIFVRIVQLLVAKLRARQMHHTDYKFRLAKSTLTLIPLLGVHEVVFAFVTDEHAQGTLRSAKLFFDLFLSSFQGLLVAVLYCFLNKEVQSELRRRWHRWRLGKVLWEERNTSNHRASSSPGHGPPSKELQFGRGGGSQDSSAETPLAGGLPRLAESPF

As for [PhLac]TS[Abu(4-SO3H)]YSKYLDSRRAQDFVQWLMNT-NH2 [[PLA^6, hCys(SO3)^9]Glucagon(aa6-29)-NH2], the “IC50 (cAMP, inhibit 0.2 nM Glucagon)” value in experiment [1] came to 40.2 nM. In experiment [2], this molecule yielded an IC50 of 14.2 nM.
As to [PhLac]TSDYSKYLDERRAKDFVQWLMDK([Glu-C16 fatty acid])-NH2 (lactam 11-15) [[PLA6, E16K20(lactam), D28, K29(EC16FA)]G(6-29)], in experiment [3], the “Glucagon antagonism IC50 (inhibit 0.4 nM glucagon)” value was 386 nM. Besides, the “GLP-1 agonism EC50” value in experiment [4] worked out at 1410 nM.
For SQGTFTSEYSKYLDERRAKDFVQWLMDT-NH2 (lactam 15-19) [[S2Q3, E9, E16K20(Lactam), D28] G(2-29)], in experiment [5], the “Glucagon antagonism IC50 (inhibit 0.8 nM glucagon)” value amounted to 23.4 nM. The “GLP-1 agonism EC50” value in experiment [6] amounted to 284 nM.

B1: [PLA^6, D^9]Glucagon(aa6-29)-COOH (peptide)
peptide: [PhLac]TSDYSKYLDSRRAQDFVQWLMNT-OH
modifications: N-terminus assumed
SMILES: CSCC[C@H](NC(=O)[C@H](CC(C)C)NC(=O)[C@H](Cc1c[nH]c2ccccc12)NC(=O)[C@H](CCC(N)=O)NC(=O)[C@@H](NC(=O)[C@H](Cc1ccccc1)NC(=O)[C@H](CC(=O)O)NC(=O)[C@H](CCC(N)=O)NC(=O)[C@H](C)NC(=O)[C@H](CCCNC(=N)N)NC(=O)[C@H](CCCNC(=N)N)NC(=O)[C@H](CO)NC(=O)[C@H](CC(=O)O)NC(=O)[C@H](CC(C)C)NC(=O)[C@H](Cc1ccc(O)cc1)NC(=O)[C@H](CCCCN)NC(=O)[C@H](CO)NC(=O)[C@H](Cc1ccc(O)cc1)NC(=O)[C@H](CC(=O)O)NC(=O)[C@H](CO)NC(=O)[C@@H](NC(=O)[C@@H](O)Cc1ccccc1)[C@@H](C)O)C(C)C)C(=O)N[C@@H](CC(N)=O)C(=O)N[C@H](C(=O)O)[C@@H](C)O
Consider B1, for which the “IC50 (cAMP, inhibit 0.1 nM Glucagon)” value in experiment [1] is 13.2 nM. The IC50 in experiment [2] turned out to be 15.5 nM.

B2: [PLA^6, D^9]Glucagon(aa6-29)-NH2 (peptide)
peptide: [PhLac]TSDYSKYLDSRRAQDFVQWLMNT-NH2
modifications: N-terminus assumed
SMILES: CSCC[C@H](NC(=O)[C@H](CC(C)C)NC(=O)[C@H](Cc1c[nH]c2ccccc12)NC(=O)[C@H](CCC(N)=O)NC(=O)[C@@H](NC(=O)[C@H](Cc1ccccc1)NC(=O)[C@H](CC(=O)O)NC(=O)[C@H](CCC(N)=O)NC(=O)[C@H](C)NC(=O)[C@H](CCCNC(=N)N)NC(=O)[C@H](CCCNC(=N)N)NC(=O)[C@H](CO)NC(=O)[C@H](CC(=O)O)NC(=O)[C@H](CC(C)C)NC(=O)[C@H](Cc1ccc(O)cc1)NC(=O)[C@H](CCCCN)NC(=O)[C@H](CO)NC(=O)[C@H](Cc1ccc(O)cc1)NC(=O)[C@H](CC(=O)O)NC(=O)[C@H](CO)NC(=O)[C@@H](NC(=O)[C@@H](O)Cc1ccccc1)[C@@H](C)O)C(C)C)C(=O)N[C@@H](CC(N)=O)C(=O)N[C@H](C(N)=O)[C@@H](C)O
On to B2, for which, in experiment [1], the “IC50 (cAMP, inhibit 0.1 nM Glucagon)” value stood at 6.9 nM. The same molecule displayed an IC50 in experiment [2] of 13.8 nM.
As to [PhLac]TSEYSKYLDSRRAQDFVQWLMNT-NH2 (lactam 4-7) [[PLA6, E9K12(Lactam)] G(6-29)], the “Glucagon antagonism IC50 (inhibit 0.8 nM glucagon)” value in experiment [5] was 72.5 nM. For the same molecule, in experiment [6], the “GLP-1 agonism EC50” value stood at 144 nM.
For the molecule [PhLac]TSDK([Glu-C16 fatty acid])SKYLDERRAKDFVQWLMDT-NH2 [[PLA6, K10(EC16FA), E16, K20,D28]G(6-29)], the “Glucagon antagonism IC50 (inhibit 0.4 nM glucagon)” value in experiment [3] worked out at 222 nM. The “GLP-1 agonism EC50” value in experiment [4] was 105 nM.
